The text below walks through data of paper PMC6282205.

The assay concerns the target Neisseria meningitidis Cas9 (NmeCas9, from strain 8013), 6×His-tagged (Neisseria meningitidis (strain 8013)) (UniProt C9X1G5).
Chain of UniProt C9X1G5 (C9X1G5 whole entry): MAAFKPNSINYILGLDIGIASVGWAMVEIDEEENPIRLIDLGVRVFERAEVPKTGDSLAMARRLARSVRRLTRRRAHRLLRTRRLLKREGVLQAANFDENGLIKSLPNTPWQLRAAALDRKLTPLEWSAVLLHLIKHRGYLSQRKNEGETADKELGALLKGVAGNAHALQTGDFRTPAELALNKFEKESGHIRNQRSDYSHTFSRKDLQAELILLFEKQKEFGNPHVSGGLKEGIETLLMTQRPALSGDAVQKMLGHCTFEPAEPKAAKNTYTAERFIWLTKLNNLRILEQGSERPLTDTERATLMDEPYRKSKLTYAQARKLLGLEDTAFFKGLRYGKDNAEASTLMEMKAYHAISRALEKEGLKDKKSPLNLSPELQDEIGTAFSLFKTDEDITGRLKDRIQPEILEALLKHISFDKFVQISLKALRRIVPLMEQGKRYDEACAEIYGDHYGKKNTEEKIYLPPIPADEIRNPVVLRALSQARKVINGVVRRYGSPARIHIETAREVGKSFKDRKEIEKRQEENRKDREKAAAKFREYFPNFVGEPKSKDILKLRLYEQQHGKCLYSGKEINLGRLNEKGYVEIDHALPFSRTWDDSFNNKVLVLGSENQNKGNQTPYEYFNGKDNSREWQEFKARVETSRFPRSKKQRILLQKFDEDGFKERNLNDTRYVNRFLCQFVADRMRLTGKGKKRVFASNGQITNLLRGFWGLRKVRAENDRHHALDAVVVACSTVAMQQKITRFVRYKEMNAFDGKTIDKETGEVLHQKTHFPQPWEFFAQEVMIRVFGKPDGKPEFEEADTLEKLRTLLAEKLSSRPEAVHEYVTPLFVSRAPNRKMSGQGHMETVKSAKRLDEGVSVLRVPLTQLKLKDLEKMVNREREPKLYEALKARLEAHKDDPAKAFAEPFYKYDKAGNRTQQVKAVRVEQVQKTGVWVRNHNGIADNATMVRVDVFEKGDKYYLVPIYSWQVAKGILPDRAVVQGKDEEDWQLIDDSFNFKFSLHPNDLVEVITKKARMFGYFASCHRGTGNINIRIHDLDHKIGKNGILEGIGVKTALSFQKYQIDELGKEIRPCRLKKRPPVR

The substance AcrIIC5Smu, untagged (natural protein) registered an in vitro cleavage of linearized target plasmid by NmeCas9-sgRNA; molar excess of Acr over Cas9 at complete inhibition (fold molar excess of Acr) of 7.
